Assay results: the supplement of paper PMC5998384

Assays:
HeLa Kyoto [1] = test: solubility in G1/S (NP-40 vs SDS abundance) (log2 ratio); higher = more soluble; settings: cell cycle stage: G1/S
HeLa Kyoto [2] = test: melting temperature (median over replicates), in situ; higher = more thermally stable
HeLa Kyoto [3] = test: solubility change mitosis vs G1/S (difference of NP-40 vs SDS log2 ratios) (log2 ratio difference); higher = more soluble in mitosis
HeLa Kyoto [4] = test: thermal stability score vs G1/S (z-score of summed log2 fold changes over temperatures); higher = more thermally stable than in G1/S
[5] = cell cycle stage: early G1 (4.5 h after nocodazole release)
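For melting temperature (median over replicates), in situ in this document: HeLa Kyoto cells synchronized by double thymidine or nocodazole block, proteins quantified by TMT10plex mass spectrometry, three independent biological replicates.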
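For solubility change mitosis vs G1/S (difference of NP-40 vs SDS log2 ratios) in this document: synchronized HeLa Kyoto cells (double thymidine block for G1/S, nocodazole release for mitosis), protein amounts in NP-40 versus SDS lysates quantified by mass spectrometry, three biological replicates.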
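For solubility in G1/S (NP-40 vs SDS abundance) in this document: HeLa Kyoto cells arrested at G1/S by double thymidine block, proteins quantified by TMT10plex mass spectrometry in mild NP-40 versus SDS extracts, three biological replicates.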
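For thermal stability score vs G1/S (z-score of summed log2 fold changes over temperatures) in this document: synchronized HeLa Kyoto cells, proteins quantified by TMT10plex mass spectrometry, three biological replicates, mitosis taken 0.5 h after nocodazole release, G1/S directly after double thymidine block.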

Sequence	solubility in G1/S (log2) (HeLa Kyoto [1])	melting temperature (HeLa Kyoto [2]; cell cycle stage: mitosis)	solubility change mitosis (log2) (HeLa Kyoto [3])	thermal stability score (HeLa Kyoto [4]; [5])	thermal stability score (HeLa Kyoto [4]; cell cycle stage: mitosis)	melting temperature (HeLa Kyoto [2]; cell cycle stage: G1/S)
MATLPAEPSAGPAAGGEAVAAAAATEEEEEEARQLLQTLQAAEGEAAAAAGAGAGAAAAGAEGPGSPGVPGSPPEAASEPPTGLRFSPEQVACVCEALLQAGHAGRLSRFLGALPPAERLRGSDPVLRARALVAFQRGEYAELYRLLESRPFPAAHHAFLQDLYLRARYHEAERARGRALGAVDKYRLRKKFPLPKTIWDGEETVYCFKERSRAALKACYRGNRYPTPDEKRRLATLTGLSLTQVSNWFKNRRQRDRTGAGGGAPCKSESDGNPTTEDESSRSPEDLERGAAPVSAEAAAQGSIFLAGTGPPAPCPASSSILVNGSFLAASGSPAVLLNGGPVIINGLALGEASSLGPLLLTGGGGAPPPQPSPQGASETKTSLVLDPQTGEVRLEEAQSEAPETKGAQVAAPGPALGEEVLGPLAQVVPGPPTAATFPLPPGPVPAVAAPQVVPLSPPPGYPTGLSPTSPLLNLPQVVPTSQVVTLPQAVGPLQLLAAGPGSPVKVAAAAGPANVHLINSGVGVTALQLPSATAPGNFLLANPVSGSPIVTGVALQQGKIILTATFPTSMLVSQVLPPAPGLALPLKPETAISVPEGGLPVAPSPALPEAHALGTLSAQQPPPAAATTSSTSLPFSPDSPGLLPNFPAPPPEGLMLSPAAVPVWSAGLELSAGTEGLLEAEKGLGTQAPHTVLRLPDPDPEGLLLGATAGGEVDEGLEAEAKVLTQLQSVPVEEPLEL [SIX5]	-0.308	50.7 °C	0.346	0.121	0.872	
MATPGNLGSSVLASKTKTKKKHFVAQKVKLFRASDPLLSVLMWGVNHSINELSHVQIPVMLMPDDFKAYSKIKVDNHLFNKENMPSHFKFKEYCPMVFRNLRERFGIDDQDFQNSLTRSAPLPNDSQARSGARFHTSYDKRYIIKTITSEDVAEMHNILKKYHQYIVECHGITLLPQFLGMYRLNVDGVEIYVIVTRNVFSHRLSVYRKYDLKGSTVAREASDKEKAKELPTLKDNDFINEGQKIYIDDNNKKVFLEKLKKDVEFLAQLKLMDYSLLVGIHDVERAEQEEVECEENDGEEEGESDGTHPVGTPPDSPGNTLNSSPPLAPGEFDPNIDVYGIKCHENSPRKEVYFMAIIDILTHYDAKKKAAHAAKTVKHGAGAEISTVNPEQYSKRFLDFIGHILT [PIP4K2A]	0.309	49.4 °C	-0.142	2.24	1.11	49.8 °C
MATPSKKTSTPSPQPSKRALPRDPSSEVPSKRKNSAPQLPLLQSSGPFVEGSIVRISMENFLTYDICEVSPGPHLNMIVGANGTGKSSIVCAICLGLAGKPAFMGRADKVGFFVKRGCSRGMVEIELFRASGNLVITREIDVAKNQSFWFINKKSTTQKIVEEKVAALNIQVGNLCQFLPQDKVGEFAKLSKIELLEATEKSIGPPEMHKYHCELKNLREKEKQLETSCKEKTEYLQKMVQRNERYKQDVERFYERKRHLDLIEMLEAKRPWVEYENVRQEYEEVKLVRDRVKEEVRKLKEGQIPVTCRIEEMENERHNLEARIKEKATDIKEASQKCKQKQDVIERKDKHIEELQQALIVKQNEELDRQRRIGNTRKMIEDLQNELKTTENCENLQPQIDAITNDLRRIQDEKALCEGEIIDKRRERETLEKEKKSVDDHIVRFDNLMNQKEDKLRQRFRDTYDAVLWLRNNRDKFKQRVCEPIMLTINMKDNKNAKYIENHIPSNDLRAFVFESQEDMEVFLKEVRDNKKLRVNAVIAPKSSYADKAPSRSLNELKQYGFFSYLRELFDAPDPVMSYLCCQYHIHEVPVGTEKTRERIERVIQETRLKQIYTAEEKYVVKTSFYSNKVISSNTSLKVAQFLTVTVDLEQRRHLEEQLKEIHRKLQAVDSGLIALRETSKHLEHKDNELRQKKKELLERKTKKRQLEQKISSKLGSLKLMEQDTCNLEEEERKASTKIKEINVQKAKLVTELTNLIKICTSLHIQKVDLILQNTTVISEKNKLESDYMAASSQLRLTEQHFIELDENRQRLLQKCKELMKRARQVCNLGAEQTLPQEYQTQVPTIPNGHNSSLPMVFQDLPNTLDEIDALLTEERSRASCFTGLNPTIVQEYTKREEEIEQLTEELKGKKVELDQYRENISQVKERWLNPLKELVEKINEKFSNFFSSMQCAGEVDLHTENEEDYDKYGIRIRVKFRSSTQLHELTPHHQSGGERSVSTMLYLMALQELNRCPFRVVDEINQGMDPINERRVFEMVVNTACKENTSQYFFITPKLLQNLPYSEKMTVLFVYNGPHMLEPNTWNLKAFQRRRRRITFTQPS [SMC5]	-0.139	50.7 °C	-0.0502	0.153	0.876	50.6 °C
MATQADLMELDMAMEPDRKAAVSHWQQQSYLDSGIHSGATTTAPSLSGKGNPEEEDVDTSQVLYEWEQGFSQSFTQEQVADIDGQYAMTRAQRVRAAMFPETLDEGMQIPSTQFDAAHPTNVQRLAEPSQMLKHAVVNLINYQDDAELATRAIPELTKLLNDEDQVVVNKAAVMVHQLSKKEASRHAIMRSPQMVSAIVRTMQNTNDVETARCTAGTLHNLSHHREGLLAIFKSGGIPALVKMLGSPVDSVLFYAITTLHNLLLHQEGAKMAVRLAGGLQKMVALLNKTNVKFLAITTDCLQILAYGNQESKLIILASGGPQALVNIMRTYTYEKLLWTTSRVLKVLSVCSSNKPAIVEAGGMQALGLHLTDPSQRLVQNCLWTLRNLSDAATKQEGMEGLLGTLVQLLGSDDINVVTCAAGILSNLTCNNYKNKMMVCQVGGIEALVRTVLRAGDREDITEPAICALRHLTSRHQEAEMAQNAVRLHYGLPVVVKLLHPPSHWPLIKATVGLIRNLALCPANHAPLREQGAIPRLVQLLVRAHQDTQRRTSMGGTQQQFVEGVRMEEIVEGCTGALHILARDVHNRIVIRGLNTIPLFVQLLYSPIENIQRVAAGVLCELAQDKEAAEAIEAEGATAPLTELLHSRNEGVATYAAAVLFRMSEDKPQDYKKRLSVELTSSLFRTEPMAWNETADLGLDIGAQGEPLGYRQDDPSYRSFHSGGYGQDALGMDPMMEHEMGGHHPGADYPVDGLPDLGHAQDLMDGLPPGDSNQLAWFDTDL [CTNNB1]	0.0555	52.4 °C	-0.093	0.0437	0.0622	53.4 °C
MATQAYTELQAAPPPSQPPQAPPQAQPQPPPPPPPAAPQPPQPPTAAATPQPQYVTELQSPQPQAQPPGGQKQYVTELPAVPAPSQPTGAPTPSPAPQQYIVVTVSEGAMRASETVSEASPGSTASQTGVPTQVVQQVQGTQQRLLVQTSVQAKPGHVSPLQLTNIQVPQQALPTQRLVVQSAAPGSKGGQVSLTVHGTQQVHSPPEQSPVQANSSSSKTAGAPTGTVPQQLQVHGVQQSVPVTQERSVVQATPQAPKPGPVQPLTVQGLQPVHVAQEVQQLQQVPVPHVYSSQVQYVEGGDASYTASAIRSSTYSYPETPLYTQTASTSYYEAAGTATQVSTPATSQAVASSGSMPMYVSGSQVVASSTSTGAGASNSSGGGGSGGGGGGGGGGGGGGSGSTGGGGSGAGTYVIQGGYMLGSASQSYSHTTRASPATVQWLLDNYETAEGVSLPRSTLYCHYLLHCQEQKLEPVNAASFGKLIRSVFMGLRTRRLGTRGNSKYHYYGLRIKASSPLLRLMEDQQHMAMRGQPFSQKQRLKPIQKMEGMTNGVAVGQQPSTGLSDISAQVQQYQQFLDASRSLPDFTELDLQGKVLPEGVGPGDIKAFQVLYREHCEAIVDVMVNLQFTLVETLWKTFWRYNLSQPSEAPPLAVHDEAEKRLPKAILVLLSKFEPVLQWTKHCDNVLYQGLVEILIPDVLRPIPSALTQAIRNFAKSLESWLTHAMVNIPEEMLRVKVAAAGAFAQTLRRYTSLNHLAQAARAVLQNTAQINQMLSDLNRVDFANVQEQASWVCRCEDRVVQRLEQDFKVTLQQQNSLEQWAAWLDGVVSQVLKPYQGSAGFPKAAKLFLLKWSFYSSMVIRDLTLRSAASFGSFHLIRLLYDEYMYYLIEHRVAQAKGETPIAVMGEFANLATSLNPLDPDKDEEEEEEEESEDELPQDISLAAGGESPALGPETLEPPAKLARTDARGLFVQALPSS [RFX1]	-0.00333	53 °C	-0.21	-1.2	-2.15	53.3 °C
MATRSCREKAQKLNEQHQLILSKLLREEDNKYCADCEAKGPRWASWNIGVFICIRCAGIHRNLGVHISRVKSVNLDQWTAEQIQCMQDMGNTKARLLYEANLPENFRRPQTDQAVEFFIRDKYEKKKYYDKNAIAITNISSSDAPLQPLVSSPSLQAAVDKNKLEKEKEKKKEEKKREKEPEKPAKPLTAEKLQKKDQQLEPKKSTSPKKAAEPTVDLLGLDGPAVAPVTNGNTTVPPLNDDLDIFGPMISNPLPATVMPPAQGTPSAPAAATLSTVTSGDLDLFTEQTTKSEEVAKKQLSKDSILSLYGTGTIQQQSTPGVFMGPTNIPFTSQAPAAFQGFPSMGVPVPAAPGLIGNVMGQSPSMMVGMPMPNGFMGNAQTGVMPLPQNVVGPQGGMVGQMGAPQSKFGLPQAQQPQWSLSQMNQQMAGMSISSATPTAGFGQPSSTTAGWSGSSSGQTLSTQLWK [SMAP1]	-0.0223	51.3 °C	-0.142	0.468	-0.266	51.2 °C
MATRSPGVVISDDEPGYDLDLFCIPNHYAEDLERVFIPHGLIMDRTERLARDVMKEMGGHHIVALCVLKGGYKFFADLLDYIKALNRNSDRSIPMTVDFIRLKSYCNDQSTGDIKVIGGDDLSTLTGKNVLIVEDIIDTGKTMQTLLSLVRQYNPKMVKVASLLVKRTPRSVGYKPDFVGFEIPDKFVVGYALDYNEYFRDLNHVCVISETGKAKYKA [HPRT1]	0.209	59.7 °C	-0.113	-0.74	-3.12	58.5 °C
MATSAPLRSLEEEVTCSICLDYLRDPVTIDCGHVFCRSCTTDVRPISGSRPVCPLCKKPFKKENIRPVWQLASLVENIERLKVDKGRQPGEVTREQQDAKLCERHREKLHYYCEDDGKLLCVMCRESREHRPHTAVLMEKAAQPHREKILNHLSTLRRDRDKIQGFQAKGEADILAALKKLQDQRQYIVAEFEQGHQFLREREEHLLEQLAKLEQELTEGREKFKSRGVGELARLALVISELEGKAQQPAAELMQDTRDFLNRYPRKKFWVGKPIARVVKKKTGEFSDKLLSLQRGLREFQGKLLRDLEYKTVSVTLDPQSASGYLQLSEDWKCVTYTSLYKSAYLHPQQFDCEPGVLGSKGFTWGKVYWEVEVEREGWSEDEEEGDEEEEGEEEEEEEEAGYGDGYDDWETDEDEESLGDEEEEEEEEEEEVLESCMVGVARDSVKRKGDLSLRPEDGVWALRLSSSGIWANTSPEAELFPALRPRRVGIALDYEGGTVTFTNAESQELIYTFTATFTRRLVPFLWLKWPGTRLLLRP [TRIM26]	-1.13		-0.225	0.882	3.9	51.2 °C
